According to US6869925 (Amgen, dated 2005):

Legend:
[1] = target: SLPI binding sites on U937 cells (human monocyte cell line; intact cells, PMA-induced cells or plasma membranes) (human); assay: 125I-SLPI saturation binding, intact U937 cells, *SLPI at 80 pM
[2] = target: SLPI binding sites on U937 cells (human monocyte cell line; intact cells, PMA-induced cells or plasma membranes) (human); assay: 125I-SLPI saturation binding, intact U937 cells, *SLPI at 5120 pM
[3] = target: SLPI binding sites on U937 cells (human monocyte cell line; intact cells, PMA-induced cells or plasma membranes) (human); assay: Scatchard plot of 125I-SLPI saturation binding, PMA-induced U937 cells
[4] = target: SLPI binding sites on U937 cells (human monocyte cell line; intact cells, PMA-induced cells or plasma membranes) (human); assay: competition with 125I-SLPI, intact U937 cells, competitor at 0.024 nM
[5] = target: SLPI binding sites on U937 cells (human monocyte cell line; intact cells, PMA-induced cells or plasma membranes) (human); assay: 125I-SLPI saturation binding, intact U937 cells, *SLPI at 10,240 pM
[6] = target: SLPI binding sites on U937 cells (human monocyte cell line; intact cells, PMA-induced cells or plasma membranes) (human); assay: 125I-SLPI saturation binding, intact U937 cells, *SLPI at 320 pM
[7] = target: SLPI binding sites on U937 cells (human monocyte cell line; intact cells, PMA-induced cells or plasma membranes) (human); assay: 125I-SLPI saturation binding, U937 cells plus PMA, *SLPI at 1,280 pM
[8] = target: SLPI binding sites on U937 cells (human monocyte cell line; intact cells, PMA-induced cells or plasma membranes) (human); assay: competition with 125I-SLPI, intact U937 cells, competitor at 0.25 nM
[9] = target: SLPI binding sites on HuT78 cells (human T cell line) (human); assay: 125I-SLPI saturation binding, intact HuT78 cells, *SLPI at 160 pM
[10] = target: SLPI binding sites on elutriated human peripheral blood monocytes (human); assay: 125I-SLPI binding to intact monocytes
[11] = target: SLPI binding sites on HuT78 cells (human T cell line) (human); assay: competition with 125I-SLPI, intact HuT78 cells, cold SLPI at 860 nM
[12] = target: SLPI binding sites on U937 cells (human monocyte cell line; intact cells, PMA-induced cells or plasma membranes) (human); assay: 125I-SLPI saturation binding, intact U937 cells, *SLPI at 20,480 pM
[13] = target: SLPI binding sites on HuT78 cells (human T cell line) (human); assay: competition with 125I-SLPI, intact HuT78 cells, cold SLPI at 0.00 nM
[14] = target: SLPI binding sites on U937 cells (human monocyte cell line; intact cells, PMA-induced cells or plasma membranes) (human); assay: competition with 125I-SLPI, intact U937 cells, cold SLPI at 0.024 nM
[15] = target: SLPI binding sites on U937 cells (human monocyte cell line; intact cells, PMA-induced cells or plasma membranes) (human); assay: competition with 125I-SLPI, U937 plasma membranes, competitor at 0.800 nM
[16] = target: SLPI binding sites on HuT78 cells (human T cell line) (human); assay: competition with 125I-SLPI, intact HuT78 cells, competitor at 8.2 nM
[17] = target: SLPI binding sites on U937 cells (human monocyte cell line; intact cells, PMA-induced cells or plasma membranes) (human); assay: 125I-SLPI saturation binding, U937 cells minus PMA, *SLPI at 640 pM
[18] = target: SLPI binding sites on U937 cells (human monocyte cell line; intact cells, PMA-induced cells or plasma membranes) (human); assay: competition with 125I-SLPI, intact U937 cells, cold SLPI at 0.80 nM
[19] = target: SLPI binding sites on U937 cells (human monocyte cell line; intact cells, PMA-induced cells or plasma membranes) (human); assay: competition with 125I-SLPI, intact U937 cells, competitor at 26 nM
[20] = target: SLPI binding sites on HuT78 cells (human T cell line) (human); assay: competition with 125I-SLPI, intact HuT78 cells, cold SLPI at 270 nM
[21] = target: SLPI binding sites on HuT78 cells (human T cell line) (human); assay: competition with 125I-SLPI, intact HuT78 cells, competitor at 84 nM
[22] = target: SLPI binding sites on U937 cells (human monocyte cell line; intact cells, PMA-induced cells or plasma membranes) (human); assay: 125I-SLPI saturation binding, U937 cells plus PMA, *SLPI at 20,480 pM
[23] = target: SLPI binding sites on U937 cells (human monocyte cell line; intact cells, PMA-induced cells or plasma membranes) (human); assay: 125I-SLPI saturation binding, intact U937 cells, *SLPI at 640 pM
[24] = target: SLPI binding sites on U937 cells (human monocyte cell line; intact cells, PMA-induced cells or plasma membranes) (human); assay: competition with 125I-SLPI, intact U937 cells, cold SLPI at 0.00 nM
[25] = target: SLPI binding sites on HuT78 cells (human T cell line) (human); assay: competition with 125I-SLPI, intact HuT78 cells, competitor at 0.80 nM

Sequence of serine leukocyte protease inhibitor (SLPI) (P03973 26-132): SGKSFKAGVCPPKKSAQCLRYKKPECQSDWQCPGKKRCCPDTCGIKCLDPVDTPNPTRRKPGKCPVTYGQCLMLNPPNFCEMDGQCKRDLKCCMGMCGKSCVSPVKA

bound *SLPI (pM) [1]: 13.6 pM
bound per free [1]: 0.205
sites bound per cell (sites per cell) [1]: 819
specific cpm [1]: 543 cpm
bound *SLPI (pM) [2]: 379 pM
bound per free [2]: 0.08
sites bound per cell (sites per cell) [2]: 22800
specific cpm [2]: 15100 cpm
Kd [3]: 1 nM
% *SLPI BOUND [4]: 111%
bound *SLPI (pM) [5]: 463 pM
bound per free [5]: 0.047
sites bound per cell (sites per cell) [5]: 27900
specific cpm [5]: 18500 cpm
bound *SLPI (pM) [6]: 65.7 pM
bound per free [6]: 0.258
sites bound per cell (sites per cell) [6]: 3960
specific cpm [6]: 2620 cpm
bound pM [7]: 130 pM
bound per free [7]: 0.113
sites bound per cell (sites per cell) [7]: 7830
specific cpm [7]: 1390 cpm
% *SLPI BOUND [8]: 106%
bound pM [9]: 0.93 pM
bound per free [9]: 0.0058
sites bound per cell (sites per cell) [9]: 56
specific cpm [9]: 37 cpm
*SLPI concentration at saturation (micrograms/ml) [10]: 0.5
*SLPI concentration required for half-maximal binding [10]: 10 nM
% *SLPI BOUND [11]: 8.7%
bound *SLPI (pM) [12]: 471 pM
bound per free [12]: 0.024
sites bound per cell (sites per cell) [12]: 28400
specific cpm [12]: 18800 cpm
% *SLPI BOUND [13]: 100%
% *SLPI BOUND [14]: 100%
CPM *SLPI BOUND [15]: 14800 cpm
% *SLPI BOUND [16]: 57%
bound *SLPI (pM) [17]: 207 pM
bound per free [17]: 0.478
sites bound per cell (sites per cell) [17]: 12500
specific cpm [17]: 2210 cpm
% *SLPI BOUND [18]: 77%
% *SLPI BOUND [19]: 11%
% *SLPI BOUND [20]: 0%
% *SLPI BOUND [21]: 27%
bound pM [22]: 255 pM
bound per free [22]: 0.0126
sites bound per cell (sites per cell) [22]: 15400
specific cpm [22]: 2720 cpm
bound *SLPI (pM) [23]: 116 pM
bound per free [23]: 0.221
sites bound per cell (sites per cell) [23]: 6990
specific cpm [23]: 4630 cpm
% *SLPI BOUND [24]: 94%
% *SLPI BOUND [25]: 79%
Substance: serine leukocyte protease inhibitor (SLPI) (from UniProt P03973 26-132)
